Results taken from PMC10955495.

Key:
[1] = biological target: Cluc‐PtoE2Fa (Populus tomentosa); assay: split reporter (BiFC, NanoBiT); LCI of Cluc-PtoE2Fa with PtoDPb1^Hap1/Hap2-Nluc in young N. benthamiana leaves with co-expressed PtoWAK106-GFP (compared with GFP)
[2] = biological target: Cluc‐PtoWAK106 (Populus tomentosa); assay: split reporter (BiFC, NanoBiT); luciferase complementation imaging (LCI): firefly luciferase complementation (Nluc / Cluc fusions) in young N. benthamiana leaves; three biological replicates
[3] = biological target: Cluc‐PtoE2Fa (Populus tomentosa); assay: as above

Substance	fold increase in luciferase activity with PtoWAK106-GFP against GFP [1] [fold]	luciferase intensity with PtoWAK106-GFP, percent higher than with PtoDPb1^Hap2 [1] [%]	luciferase activity, percent higher than with PtoDPb1^Hap2 [2] [%]	luciferase activity, percent stronger than with PtoDPb1^Hap2 [3] [%]
PtoDPb1^Hap2‐Nluc (natural protein)	3.8	–	–	–
PtoDPb1^Hap1‐Nluc (natural protein)	3.61	47.3	37	85.8
